# In patent publication US20160376333A1 (University of Washington, published 2016):
# T1: Epstein-Barr virus BHRF1 a.a. 1-161 with C-terminal avi-6his tag (Epstein-Barr virus)
# T1 construct: also called EBV BHRF1; BHRF1-biotin
# T1 chain: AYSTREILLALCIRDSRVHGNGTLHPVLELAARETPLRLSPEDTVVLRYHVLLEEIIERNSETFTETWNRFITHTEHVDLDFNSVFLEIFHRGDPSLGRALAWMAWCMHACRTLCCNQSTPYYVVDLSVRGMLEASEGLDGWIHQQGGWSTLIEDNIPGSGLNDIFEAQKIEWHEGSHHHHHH
# B1: human Bcl-XL a.a. 1-205 with C-terminal avi-6his tag (other)
# chain: SQSNRELVVDFLSYKLSQKGYSWSQFSDVEENRTEAPEGTESEMETPSAINGNPSWHLADSPAVNGATGHSSSLDAREVIPMAAVKQALREAGDEFELRYRRAFSDLTSQLHITPGTAYQSFEQVVNELFRDGVNWGRIVAFFSFGGALCVESVDKEMQVLVSRIAAWMATYLNDHLEPWIQENGGWDTFVELYGNNAAAESRKGLNDIFEAQKIEWHEGSHHHHHH
# notes: also called BCL2L1
# Tests used:
# [1] = molecular target: T1, Epstein-Barr virus BHRF1 a.a. 1-161 …; assay: yeast display library, FACS sort at 100 nM BHRF1, deep sequencing
# [2] = molecular target: T1, Epstein-Barr virus BHRF1 a.a. 1-161 …; assay: yeast display library, FACS sort at 400 nM BHRF1, deep sequencing
# [3] = molecular target: B1; assay: initial BLI screening (column 'Binds target?')
# [4] = molecular target: T2, Bim-BH3 motif fused to the C-terminus of maltose-binding protein (MBP) (human, UniProt O43521 141-166); assay: BLI, biotinylated target on streptavidin sensor, MBP-Bim-BH3 in solution
# T2 construct: domain: Bim-BH3 motif; also called MBP-Bim-BH3
# [5] = molecular target: T1, Epstein-Barr virus BHRF1 a.a. 1-161 …; assay: yeast surface display; BHRF1 titrated on clonal yeast showing the design, fluorescence by flow cytometry (apparent KD)
# T2 sequence (O43521 141-166 limits assumed): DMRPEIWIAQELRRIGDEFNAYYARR
binder,measurement,setting,value
Index 29 (designed binder) GEVAKDLAKLAIDLAKKLMLLFWWFFELFKLFAKFTDEWQEWKARGTAFWIALSLAAIGDFFNARRRAELQAREGKQKGLTTEEKEKRWREHLKEAWEKLEKISRLAFLFAQEAENQG,Log2 enrichment ratio,[1],-1.66 log2
same,Log2 enrichment ratio,[2],-2.43 log2
Index 25 (designed binder) GANHEDAIWEALYKAEDAFKDHLKEIEIYREFSEKFWPLDDYKDNLRAHWIAAALAAIGDWFNVFFEAELKFREAKRKNLRSEDDIKKYRWRLFKALDIAIDLADRVGDEAEKAERLG,Log2 enrichment ratio,[1],-2.9 log2
same,Log2 enrichment ratio,[2],-1.53 log2
X-CDP04 (designed binder) ADPKKVLDKAKDQAENRVRELKQKLEELYKEARKLDLTQEDRKRLLLQYIAAMLAAIGDLENAIRWAKREADKLKKAGLVNSQQLDELKRRLEELAKEAAEKAADYGEEFNLKLEY,binding result,[3],binds
Index 22 (designed binder) GSSAEDLRDWARDQHEKDVDKMEKRLRLLYFELARKDFNEEELKKATEKWIAAALDAIGDHFNAALKARLLARDAAKKGLIDRNKLDEVEKMAELFEELGERKAALKGREFLRWVLLG,Log2 enrichment ratio,[1],-3.03 log2
same,Log2 enrichment ratio,[2],-2.4 log2
Index 36 (designed binder) GYTKEWIRDRAKEELDRFADEAKDKADKIRDDFEKRDDKNQIAAELTKKWIAAELEAIGDAFNRAEEAKERLKKLLKLGLTRKEEAEEAAEKLEKLEKEASEKLSKIAHEVSKHDDQG,Log2 enrichment ratio,[1],-3.6 log2
same,Log2 enrichment ratio,[2],-3.65 log2
X-CDP01 (designed binder) ADPKKVLDKAKDQAENRVRELKQKLEELYKEARKLDLTQEMRRELQARYIAAMLAAAGDIMEAIQQAKNEADKLKKAGLVNSQQLDELKRRLEELAKEAARKAEDYGREFQLKLEY,binding result,[3],binds
X-CDP10 (designed binder) ADPKKVLDKAKDQAENRVRELKQKLEELYKEARKLDLTQEMRRELRERYIAAMLAAAGDLWYAITQAKREADKLKKAGLVNSQQLDELKRRLEELLEEAARKAEDYGEEFRLKLEY,binding result,[3],binds
X-CDP11 (designed binder) ADPKKVLDKAKDQAENRVRELKQKLEELYKEARKLDLTQEMRRELRDRYIAAMLAAIGDLFNAIQWAKQEADKLKKAGLVNSQQLDELKRRLEELAEEAARKAEDYGEEFKLKLEY,binding result,[3],binds
X-CDP02 (designed binder) ADPKKVLDKAKDQAENRVRELKQKLEELYKEARKLDLTQEMRKELVARYIAAMLAAAGDIVQAIQDAKNEADKLKKAGLVNSQQLDELKRRLEELAKEAARKATDYGREFQLKLEY,binding result,[3],binds
B1,Kd,[4],1.56 nM
Index 35 (designed binder) GGDGVKELEELEKRKDEKKNKAEDRIKKFKDEAKYADDRTEDKEKLAHRWIALALDIIGDAFNLKEEARRRFLRHKFRGELDDSKKEYAEKEMKRFEDDVEKDAEELAQKAKEAFKEG,Log2 enrichment ratio,[1],-3.51 log2
same,Log2 enrichment ratio,[2],-3.29 log2
Index 31 (designed binder) GDQADKIKDKIKDEAKKKADEFKKRLEQFREYLEKVYSDDLKEIYLTIFWIALALMLIGDAFNEKMLLEWEFKERKKRNLRHEEELKEEKKKREEAEKALEWASKYASQVGKEAAEEG,Log2 enrichment ratio,[1],-3.55 log2
same,Log2 enrichment ratio,[2],-4.21 log2
Index 24 (designed binder) GELAREAAEEAHRRVEEDARDAKNRLDEFKKRYKITQLSKSDISRATALWIAAALDAIGDIFNAKQKAEKILGLWYKLGLVQLQEFLEKEDKARYHWQAALERAFEAGRDMLEVAAYG,Log2 enrichment ratio,[1],-3.02 log2
same,Log2 enrichment ratio,[2],-2.95 log2
Index 28 (designed binder) GKEGSRLREEAERRGLRKLLEVILRWLEDALRMIYGQDKDEDRKEATHRWIADALELIGDIFNALLEAFIKMELARRFGLLEEQRARDEKKKALERAEEFSKRARELGEKLTQILEGG,Log2 enrichment ratio,[1],-4.52 log2
same,Log2 enrichment ratio,[2],-2.85 log2
Index 01 (designed binder) GKRLEETVEETERRLREALREVYLLILLLAEEAKKKDLKEQNRHEYVFKWIAFMLMAIGDIFNIAEESKRRLDLFAKWGLHDRNKIDEAKKKIDKLALEAIERAKKYGDWFLNELDKG,Log2 enrichment ratio,[1],4.02 log2
same,Log2 enrichment ratio,[2],3.54 log2
same,Kd,[5],39 nM
X-CDP03 (designed binder) ADPKKVLDKAKDQAENRVRELKQKLEELYKEARKLDLTQEMRRELRNRAIAAILQAIGDLLNAIQQAKDEADKLKKAGLVNSQQLDELKRRLEELQNEAAEKAADYGEEFWLKLEY,binding result,[3],binds
Index 32 (designed binder) GGDENKLKDYVKDEIERGLNEIEDLARKIEQLARRFFPKDEERMKFTMWWIAAALMAIGDIFNAKEYARERAEEIRRKGLRREEEARRIEKFIEEEAEKAAKKAAKLGDHLAEELFRG,Log2 enrichment ratio,[1],-2 log2
same,Log2 enrichment ratio,[2],-2.56 log2
X-CDP08 (designed binder) ADPKKVLDKAKDRAENRVRKLKKELEKLYKEARKLDLTQEQRDRIINAAIAAMIAAFGDIFHAIMEAKEEARKLKKAGLVNSQQLDELKRRLDELDEEAAQRAEKLGKEFRLKFEY,binding result,[3],binds
X-CDP06 (designed binder) ADPKKVLDKAKDRAENRVRELKKKLEKLYKEARKLDLTQEQRNKIINAAMAAMIAAFGDIFHAIQEAKEEAKKLKKAGLVNSQQLDELKRRLDELDEEAAQRAEKLGKEFNLKFEY,binding result,[3],binds
X-CDP05 (designed binder) ADPKKVLDKAKDQAENRVRELKQKLEELYKEARKLDLTQEMRRQLRDQYIAAMLAAIGDLLNAIMQAKREADKLKKAGLVNSQQLDELKRRLEELEEEAAQKAADYGQEFLLKLEY,binding result,[3],binds
Index 30 (designed binder) GSRWFDAEDKMRERKDRAILQLLFMLWIIFYILWYGDDTEEAKRKAMAAWIALALIGIGDIFNAEAEFLEELERAIKQGQVSDQLKEELLKRMEDDKRDLEKRLYEFLLKALLQWMQG,Log2 enrichment ratio,[1],-2.58 log2
same,Log2 enrichment ratio,[2],-4.1 log2
Index 34 (designed binder) GKFKKLFENYAELFARWVADKGKKLAEELREKAEKGLKLQKLWLIFTMIWIAIMLMSIGDAFNLALLAELWVQAAKNYGWLRDNEADEAEDRVRKFADEASRRALEKGLEALRKILEG,Log2 enrichment ratio,[1],-3.41 log2
same,Log2 enrichment ratio,[2],-2.21 log2
Index 37 (designed binder) GDFWLKAIEIAGGRMLERARESWYRALYFILMVKLFYPSDDLRRIFTLRWIAESLKLIGDAFNLFELARELLELYYKYGWITLEKALKALWILLKLEEIFSKASKDLGERLAEEIERG,Log2 enrichment ratio,[1],-3.13 log2
same,Log2 enrichment ratio,[2],-2.14 log2
Index 27 (designed binder) GLDGDYLMDEAFKFIERERERAEEEAKKMYELAEKGKYYEERKTKATKFWIALALEMIGDFFNFEMWFRKYAEKNRENNQRREDLLRRWELLLRFQAWDAAERARELGKRLELWFKKG,Log2 enrichment ratio,[1],-0.72 log2
same,Log2 enrichment ratio,[2],0.86 log2
Index 23 (designed binder) GEDEEKDHKDTEEKARRLHERARDMLDKVKDLEEKTDAQDNERRRATHDWIAAALMMIGDAFNSFEDTKRRAEKKRELNLISEDEAKEKIKRAEELRKRIYELLKKAAEFAREAEKGG,Log2 enrichment ratio,[1],-1.72 log2
same,Log2 enrichment ratio,[2],-0.17 log2
Index 26 (designed binder) GRFAERLFKKMLIKQLLNTQYFRDQLKQLKDRSKKYDASDDDKDEATHRWIAFALMAIGDVFNDKLEIELLIELFAKYGLVHEEERKEFRKRLDEFEKIFRKWLDELKKLALEALNQG,Log2 enrichment ratio,[1],-2.74 log2
same,Log2 enrichment ratio,[2],-2 log2
Index 33 (designed binder) GKQWQEAFEEARRRIEEKAREFEDRAKKEALLHLFFIPHDKEIADNSKKWIAWALMLIGDIFNLEEEAAERARRHVKRGEISEDDAKQIRKRLQEQAKRAAWWMRYWGEESAKFAFIG,Log2 enrichment ratio,[1],-4.18 log2
same,Log2 enrichment ratio,[2],-3.85 log2
"human Bcl-B a.a. 11-175 with C-terminal avi-6his tag (other, also called BCL2L10) ADPLRERTELLLADYLGYCAREPGTPEPAPSTPEAAVLRSAAARLRQIHRSFFSAYLGYPGNRFELVALMADSVLSDSPGPTWGRVVTLVTFAGTLLERGPLVTARWKKWGFQPRLKEQEGDVARDCQRLVALLSSRLMGQHRAWLQAQGGWDGFCHFFRTPFPGLNDIFEAQKIEWHEGSHHHHHH",Kd,[4],7 nM
